The values below are quoted from earlier work in paper PMC3008546.

The series addresses DNA ligase IV BRCT (Homo sapiens) (UniProt P49917).

XRCC4, sequence (Q13426 266-336): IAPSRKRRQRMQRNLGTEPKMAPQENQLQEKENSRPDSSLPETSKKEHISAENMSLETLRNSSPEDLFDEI
DNA ligase IV BRCT (Homo sapiens), sequence (P49917 654-911): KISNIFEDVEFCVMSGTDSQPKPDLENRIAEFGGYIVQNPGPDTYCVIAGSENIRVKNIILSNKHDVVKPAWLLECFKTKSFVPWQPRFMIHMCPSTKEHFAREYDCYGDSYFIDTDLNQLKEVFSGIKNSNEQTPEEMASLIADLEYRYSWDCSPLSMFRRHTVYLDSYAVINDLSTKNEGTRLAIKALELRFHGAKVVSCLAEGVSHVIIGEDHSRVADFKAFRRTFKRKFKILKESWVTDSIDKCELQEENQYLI

As for XRCC4 (from UniProt Q13426), the Kd is 1 nM.
